# Source: the supplement of paper PMC7125110
# ± gives the standard error. Variants at the floor of the assay were thinned out.
# B1: glmS ribozyme (parent)
# chain: AUAAAAGCGCCAGAACUACAGAAAUGUAGUUGACGAGGAGGAGGUUUAUCGAAUUUUCGGCGGAUGCCUCCAAA
# How the values were obtained:
# Details in all cases: with glucosamine-6-phosphate
# glucosamine-6-phosphate [1] = variants of: B1; assay: self-cleavage kobs at 640 uM GlcN6P; higher = faster cleavage; RNA array
# Procedure, shortened: (§1)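 Barcoded ribozyme variants on sequenced MiSeq chips were transcribed in situ by E. coli RNA polymerase and followed at 37 °C through a hybridised Cy3 probe. Glucosamine-6-phosphate at 40 μM to 10 mM in HEPES/KCl/Mg(OAc)2 buffer was flowed in, and tiles were imaged over ~14 h. Signals were normalised to baseline and to non-cleaving reference variants, and per-tile medians were fit to one- or two-exponential decays to give kobs. Weighted Michaelis–Menten fits across concentrations gave kcat and KM.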
# glucosamine-6-phosphate [2] = variants of: B1; assay: self-cleavage kobs at 2500 uM GlcN6P; higher = faster cleavage; RNA array
# Procedure, shortened: as §1
# glucosamine-6-phosphate [3] = variants of: B1; assay: self-cleavage kobs at 10000 uM GlcN6P; higher = faster cleavage; RNA array
# Procedure, shortened: as §1
Variant,self-cleavage kobs at 640 uM GlcN6P (glucosamine-6-phosphate [1]),self-cleavage kobs at 2500 uM GlcN6P (glucosamine-6-phosphate [2]),self-cleavage kobs at 10000 uM GlcN6P (glucosamine-6-phosphate [3])
U30C A36C A39U G43A G44U,< 1e-05 s⁻¹,–,–
C34U U47C,< 1e-05 s⁻¹,< 1e-05 s⁻¹,< 1e-05 s⁻¹
C11U G41U U45C,< 1e-05 s⁻¹,–,–
A6G G29C G35U A42C C58G C68G,< 1e-05 s⁻¹,–,–
C58U U69A,6.22e-05 ± 2.6e-05 s⁻¹,–,–
G40U U46G U47G U55A G63U,< 1e-05 s⁻¹,< 1e-05 s⁻¹,–
C16U U46C C50U,< 1e-05 s⁻¹,–,–
G13U G66C U69G,7.62e-05 ± 2.3e-05 s⁻¹,–,–
C16U C58U C67U C70U,0.000267 ± 6.7e-05 s⁻¹,6.37e-05 ± 2.5e-05 s⁻¹,–
C34A G35A A42G,< 1e-05 s⁻¹,< 1e-05 s⁻¹,–
C34U A39C C50G,< 1e-05 s⁻¹,–,–
G7C A15C G51U C61A G66U,< 1e-05 s⁻¹,–,–
G41C A64C C67A,< 1e-05 s⁻¹,–,–
A15U U31A C34A,< 1e-05 s⁻¹,< 1e-05 s⁻¹,–
C10A A12U C67G,8.71e-05 ± 3.5e-05 s⁻¹,–,–
G21U U69G,6.25e-05 ± 1.4e-05 s⁻¹,9.89e-05 ± 2e-05 s⁻¹,–
G29U A33U G44A,< 1e-05 s⁻¹,< 1e-05 s⁻¹,–

Variant,self-cleavage kobs at 640 uM GlcN6P (glucosamine-6-phosphate [1]),self-cleavage kobs at 2500 uM GlcN6P (glucosamine-6-phosphate [2]),self-cleavage kobs at 10000 uM GlcN6P (glucosamine-6-phosphate [3])
C16U G43C C71A,< 1e-05 s⁻¹,< 1e-05 s⁻¹,–
A12G G43C G51U G63A U65C C68A,< 1e-05 s⁻¹,< 1e-05 s⁻¹,–
G9U U47G,< 1e-05 s⁻¹,–,< 1e-05 s⁻¹
G9C C50U U55G,< 1e-05 s⁻¹,< 1e-05 s⁻¹,–
U49G G62C,< 1e-05 s⁻¹,–,–
G41U U47G G51U,< 1e-05 s⁻¹,< 1e-05 s⁻¹,–
G29A U30A A42G A53G,9.25e-05 ± 2.3e-05 s⁻¹,–,–
C8G G43A U46G,< 1e-05 s⁻¹,–,< 1e-05 s⁻¹
C10U A12U G29C G41U C70U,< 1e-05 s⁻¹,< 1e-05 s⁻¹,–
U49C U55C,< 1e-05 s⁻¹,< 1e-05 s⁻¹,–
U45G U54C C61U,< 1e-05 s⁻¹,< 1e-05 s⁻¹,–
U31G G51U,< 1e-05 s⁻¹,–,–
U31A G32A G59U G62A,< 1e-05 s⁻¹,–,–
A42G C58A A64U,< 1e-05 s⁻¹,< 1e-05 s⁻¹,–
A36G C58A G59U C70U,< 1e-05 s⁻¹,< 1e-05 s⁻¹,–
U17G G63A,< 1e-05 s⁻¹,< 1e-05 s⁻¹,–
